This data set relates to recombinant wild-type human alpha-synuclein.

With casein kinase I (CKI), the “S87 phosphorylation, immunoblot (ELADW-110)” value was “A signal was detected only with CKI phosphorylation”; the “S129 phosphorylation in vitro, normalised by activity units” value is “CKI gave a modest signal”; the “S129 phosphorylation, immunoblot (11A5), kinase:AS 1:200 molar” value is “Prominent signals came from GRK6, CKI, CKII and PLK2”; the “S129 phosphorylation, immunoblot (11A5), rank of signal” value is recorded as “CKI>GRK6>PLK2>GRK4>GRK5>GRK2”. Besides, the “phospho ser-129 level in vitro, normalised for molarity” value was “roughly equivalent levels of phospho ser-129 between CKI, GRK6 and PLK2”.

On to casein kinase II (CKII), for which the “S129 phosphorylation in vitro, normalised by activity units” value is given as “CKII was not detectable”; the “S129 phosphorylation, immunoblot (11A5), kinase:AS 1:200 molar” value was “Prominent signals came from GRK6, CKI, CKII and PLK2”.
